According to US11278600B2, “Human alpha-galactosidase variants” (Codexis, Inc., priority 2014, dated 2022):

Key:
Assay type in all cases: biochemical
[1] = HTP-analysis of yeast culture supernatants, no challenge (MUGal hydrolysis); settings: activity of the variant/activity of Rd3BB (SEQ ID NO: 13), yeast culture supernatant
Outline: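 GLA variants expressed in yeast INVSc1, secreted into SD-Ura broth over 66-84 h at 30° C; clarified supernatants tested without challenge. Supernatant mixed with McIlvaine buffer pH 4.8 and 2 mM MUGal (citrate/KCl, pH 4.6), 37° C for 30-180 min, carbonate-quenched, fluorescence Ex 355/Em 448 nm.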

[2] = HTP-analysis of supernatants pretreated with acid (MUGal hydrolysis); settings: challenge at pH 4.0; activity of the variant/activity of Rd3BB (SEQ ID NO: 13); yeast culture supernatant
Outline: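 MUGal hydrolysis was tracked by fluorescence (Ex 355 nm, Em 448 nm) after a 30-180 min reaction at 37° C. in pH 4.8 McIlvaine/citrate buffer, stopped with 1 M sodium carbonate. Beforehand, yeast (INVSc1) culture supernatants carrying GLA variants were held 1-3 h at 37° C. in acidic McIlvaine buffer, pH 3.3-4.3.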

[3] = HTP-analysis of supernatants pretreated with base (MUGal hydrolysis); settings: challenge at pH 8.2; activity of the variant/activity of Rd3BB (SEQ ID NO: 13); yeast culture supernatant
Outline: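 GLA variants secreted from yeast INVSc1; culture supernatants pre-incubated with McIlvaine buffer pH 7.0–8.2 or 200 mM bicarbonate pH 9.1–9.7 at 37° C. for 1–18 h. Residual activity: MUGal (4 mM stock) hydrolysis at pH 4.3–4.8, 37° C., 30–180 min, carbonate quench; fluorescence Ex 355/Em 448 nm.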

[4] = HTP-analysis of supernatants pretreated with bovine serum (MUGal hydrolysis); settings: activity of the variant/activity of Rd3BB (SEQ ID NO: 13), yeast culture supernatant
Outline: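 Yeast INVSc1 culture supernatants containing secreted GLA variants were mixed with bovine serum (20:80) and held 1 h at 37° C. Serum-treated samples then reacted with MUGal (4 mM stock) in citrate/McIlvaine buffer (pH 4.3/4.8) for 180 min at 37° C., were quenched with sodium carbonate, and read by fluorescence (Ex 355, Em 448 nm).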

B1: 348 (protein)
chain: LDNGLARTPTMGWLHWERFMCNLDCQEEPDSCISEKLFMEMAERMVSEGWKDAGYEYLCIDDCWMAPQRDSEGRLQADPQRFPHGIRQLANYVHSKGLKFGIYADVGNKTCAGFPGSFGYYDIDAQTFADWGVDLLKFDGCYCDSLENLADGYKHMSLALNRTGRSIVYSCEWPLYMWPFQKPNYTEIRQYCNHWRNFADIDDSWASVKSILDWTSFNQEKIVDVAGPGGWNDPDMLVIGNFGLSWNQQVTQMALWAIMAAPLFMSNDLRHISPQAKALLQDKDVIAINQDPLGKQGYQLRQGDNFEVWERPLSGLAWAVAIINRQEIGGPRSYTIAVASLGGGVACNPACFITQLLPVKRKLGLYNWTSRLKSHINPTGTVLLQLENTMQMSLKDLL
modifications: Synthetic Polypeptide sequence of Variant No. 348 of mature Human GLA
[1]
  Relative Activity of GLA Variants After No Challenge (NC): + (+ = 0.5 to 1.5 relative activity over Rd3BB (SEQ ID NO: 13))
[2]
  Relative Activity of GLA Variants After Challenge at pH 4.0: + (+ = 0.5 to 1.5 relative activity over Rd3BB (SEQ ID NO: 13))
[3]
  Relative Activity of GLA Variants After Challenge at pH 8.2: + (+ = 0.5 to 1.5 relative activity over Rd3BB (SEQ ID NO: 13))
[4]
  Relative Activity of GLA Variants After Challenge with Serum: + (+ = 0.5 to 1.5 relative activity over Rd3BB (SEQ ID NO: 13))

B2: 353 (protein)
chain: LDNGLARTPTMGWLHWERFMCNLDCQEEPDSCISEKLFMEMAERMVSEGWKDAGYEYLCIDDCWMAPQRDSEGRLQADPQRFPHGIRQLANYVHSKGLKFGIYADVGNKTCAGFPGSFGYYDIDAQTFADWGVDLLKFDGCYCDSLENLADGYKHMSLALNRTGRSIVYSCEWPLYMWPFQKPNYTEIRQYCNHWRNFADIDDSWASIKSILDWTSFNQETIVDVAGPGGWNDPDMLVIGNFGLSWNQQVTQMALWAIMAAPLFMSNDLRHISPQAKALLQDKDVIAINQDPLGKQGYQLRQGDNFEVWERPLSGLAWAVAIINRQEIGGPRSYTIAVASLGKGVACNPACFITQLLPVKRKLGLYNWTSRLKSHVNPTGTVLLQLENTMQMSLKDLL
modifications: Synthetic Polypeptide sequence of Variant No. 353 of mature Human GLA
[1]
  Relative Activity of GLA Variants After No Challenge (NC): − (− = <0.5 relative activity to Rd3BB (SEQ ID NO: 13))
[2]
  Relative Activity of GLA Variants After Challenge at pH 4.0: − (− = <0.5 relative activity to Rd3BB (SEQ ID NO: 13))
[3]
  Relative Activity of GLA Variants After Challenge at pH 8.2: − (− = <0.5 relative activity to Rd3BB (SEQ ID NO: 13))
[4]
  Relative Activity of GLA Variants After Challenge with Serum: + (+ = 0.5 to 1.5 relative activity over Rd3BB (SEQ ID NO: 13))

B3: 352 (protein)
chain: LDNGLARTPTMGWLHWERFMCNLDCQEEPDSCISEKLFMEMAERMVSEGWKDAGYEYLCIDDCWMAPQRDSEGRLQADPQRFPHGIRQLANYVHSKGLKFGIYADVGNKTCAGFPGSFGYYDIDAQTFADWGVDLLKFDGCYCDSLENLADGYKHMSLALNRTGRSIVYSCEWPLYMWPFQKPNYTEIRQYCNHWRNFADIDDSWASIKSILDWTSFNQEKIVDVAGPGGWNDPDMLVIGNFGLSWNQQVTQMALWAIMAAPLFMSNDLRHISPQAKALLQDKDVIAINQDPLGKQGYQLRKGDNFEVWERPLSGLAWAVAIINRQEIGGPRSYTIAVASLGKGVACNPACFITQLLPVKRKLGFYNWTSRLKSHVNPTGTVLLQLENTMQMSLKDLL
modifications: Synthetic Polypeptide sequence of Variant No. 352 of mature Human GLA
[1]
  Relative Activity of GLA Variants After No Challenge (NC): + (+ = 0.5 to 1.5 relative activity over Rd3BB (SEQ ID NO: 13))
[2]
  Relative Activity of GLA Variants After Challenge at pH 4.0: + (+ = 0.5 to 1.5 relative activity over Rd3BB (SEQ ID NO: 13))
[3]
  Relative Activity of GLA Variants After Challenge at pH 8.2: + (+ = 0.5 to 1.5 relative activity over Rd3BB (SEQ ID NO: 13))
[4]
  Relative Activity of GLA Variants After Challenge with Serum: + (+ = 0.5 to 1.5 relative activity over Rd3BB (SEQ ID NO: 13))

B4: 351 (protein)
chain: LDNGLARTPTMGWLHWERFMCNLDCQEEPDSCISEKLFMEMAERMVSEGWKDAGYEYLCIDDCWMAPQRDSEGRLQADPQRFPHGIRQLANYVHSKGLKFGIYADVGNKTCAGFPGSFGYYDIDAQTFADWGVDLLKFDGCYCDSLENLADGYKHMSLALNRTGRSIVYSCEWPLYMWPFQKPNYTEIRQYCNHWRNFADIDDSWASVKSILDWTSFNQETIVDVAGPGGWNDPDMLVIGNFGLSWNQQVTQMALWAIMAAPLFMSNDLRHISPQAKALLQDKDVIAINQDPLGKQGYQLRKGDNFEVWERPLSGLAWAVAIINRQEIGGPRSYTIAVASLGKGVACNPACFITQLLPVKRKLGFYNWTSRLKSHVNPTGTVLLQLENTMQMSLKDLL
modifications: Synthetic Polypeptide sequence of Variant No. 351 of mature Human GLA
[1]
  Relative Activity of GLA Variants After No Challenge (NC): + (+ = 0.5 to 1.5 relative activity over Rd3BB (SEQ ID NO: 13))
[2]
  Relative Activity of GLA Variants After Challenge at pH 4.0: + (+ = 0.5 to 1.5 relative activity over Rd3BB (SEQ ID NO: 13))
[3]
  Relative Activity of GLA Variants After Challenge at pH 8.2: ++ (++ = >1.5 to 2.5 relative activity over Rd3BB (SEQ ID NO: 13))
[4]
  Relative Activity of GLA Variants After Challenge with Serum: + (+ = 0.5 to 1.5 relative activity over Rd3BB (SEQ ID NO: 13))

B5: 350 (protein)
chain: LDNGLARTPTMGWLHWERFMCNLDCQEEPDSCISEKLFMEMAERMVSEGWKDAGYEYLCIDDCWMAPQRDSEGRLQADPQRFPHGIRQLANYVHSKGLKFGIYADVGNKTCAGFPGSFGYYDIDAQTFADWGVDLLKFDGCYCDSLENLADGYKHMSLALNRTGRSIVYSCEWPLYMWPFQKPNYTEIRQYCNHWRNFADIDDSWASVKSILDWTSFNQETIVDVAGPGGWNDPDMLVIGNFGLSWDQQVTQMALWAIMAAPLFMSNDLRHISPQAKALLQDKDVIAINQDPLGKQGYQLRQGDNFEVWERPLSGLAWAVAVINRQEIGGPRSYTIAVASLGKGVACNPACFITQLLPVKRKLGFYNWTSRLKSHVNPTGTVLLQLENTMQMSLKDLL
modifications: Synthetic Polypeptide sequence of Variant No. 350 of mature Human GLA
[1]
  Relative Activity of GLA Variants After No Challenge (NC): + (+ = 0.5 to 1.5 relative activity over Rd3BB (SEQ ID NO: 13))
[2]
  Relative Activity of GLA Variants After Challenge at pH 4.0: ++ (++ = >1.5 to 2.5 relative activity over Rd3BB (SEQ ID NO: 13))
[3]
  Relative Activity of GLA Variants After Challenge at pH 8.2: +++ (+++ = >2.5 relative activity over Rd3BB (SEQ ID NO: 13))
[4]
  Relative Activity of GLA Variants After Challenge with Serum: + (+ = 0.5 to 1.5 relative activity over Rd3BB (SEQ ID NO: 13))

B6: 349 (protein)
chain: LDNGLARTPTMGWLHWERFMCNLDCQEEPDSCISEKLFMEMAERMVSEGWKDAGYEYLCIDDCWMAPQRDSEGRLQADPQRFPHGIRQLANYVHSKGLKFGIYADVGNKTCAGFPGSFGYYDIDAQTFADWGVDLLKFDGCYCDSLENLADGYKHMSLALNRTGRSIVYSCEWPLYMWPFQKPNYTEIRQYCNHWRNFADIDDSWASVKSILDWTSFNQETIVDVAGPGGWNDPDMLVIGNFGLSWDQQVTQMALWAIMAAPLFMSNDLRHISPQAKALLQDKDVIAINQDPLGKQGYQLRQGDNFEVWERPLSGLAWAVAIINRQEIGGPRSYTIAVASLGKGVACNPACFITQLLPVKRKLGLYNWTSRLKSHINPTGTVLLQLENTMQMSLKDLL
modifications: Synthetic Polypeptide sequence of Variant No. 349 of mature Human GLA
[1]
  Relative Activity of GLA Variants After No Challenge (NC): + (+ = 0.5 to 1.5 relative activity over Rd3BB (SEQ ID NO: 13))
[2]
  Relative Activity of GLA Variants After Challenge at pH 4.0: + (+ = 0.5 to 1.5 relative activity over Rd3BB (SEQ ID NO: 13))
[3]
  Relative Activity of GLA Variants After Challenge at pH 8.2: ++ (++ = >1.5 to 2.5 relative activity over Rd3BB (SEQ ID NO: 13))
[4]
  Relative Activity of GLA Variants After Challenge with Serum: + (+ = 0.5 to 1.5 relative activity over Rd3BB (SEQ ID NO: 13))
